# Patent US20210009668A1 (ROCHE DIAGNOSTICS OPERATIONS, published 2021)
# Changes are numbered by the printed parent chain. Numbers in names are those of the source.
# B1: parental anti-cTnT Fab fragment (wildtype TnT M-7 Fab, from antibody 12.1A11.11-7) (Fab, V domains shown)
# VH: EVQLQQSGPELVKPGASVKMSCKASGYTFTDYYMKWVKQSHGKSLEWIGDINPNNGETFYNQKFKDKATLTVDKSSSTAYMQLNSLTSEDSAVYYCATRVFDYWGQGTTLTVSS
# VL: DIVLTQSPASLAVSLGQRATISCKASQSVDYDGTSYMNWFQQKAGQPPKRLIYAASNLESGIPARFSGRGSGTDFALNIHPVEEEDAATYYCQQSNEDPYTFGGGTKLEIK
# notes: also called wildtype Fab; TnT M-7 (wildtype) Fab
# B2: anti-cTnT Fab mutant 18 (V101Y) (Fab, V domains shown)
# VH: B1 VH with V100Y
# VL: B1 VL
# notes: it was tied to mutant 18 by the printed mutation V101Y; also called combination 18
# B3: anti-cTnT Fab mutant 22 (F60W, Y104F) (Fab, V domains shown)
# VH: B1 VH with F59W, Y103F
# VL: B1 VL
# notes: also called combination 22
# B4: anti-cTnT Fab mutant 3 (Y34F, F60W, V101Y) (Fab, V domains shown)
# VH: B1 VH with Y33F, F59W, V100Y
# VL: B1 VL
# notes: also called combination 3
# B5: anti-cTnT Fab mutant 20 (V101Y + Y104F) (Fab, V domains shown)
# VH: B1 VH with V100Y, Y103F
# VL: B1 VL
# notes: also called combination 20
# B6: anti-cTnT Fab mutant 7 (Y34F, Y104F) (Fab, V domains shown)
# VH: B1 VH with Y33F, Y103F
# VL: B1 VL
# notes: also called combination 7
# B7: anti-cTnT Fab mutant 23 (F60W, V101Y + Y104F) (Fab, V domains shown)
# VH: B1 VH with F59W, V100Y, Y103F
# VL: B1 VL
# notes: it was tied to mutant 23 by the printed mutations; also called combination 23
# B8: anti-cTnT Fab mutant 1 (Y34F) (Fab, V domains shown)
# VH: B1 VH with Y33F
# VL: B1 VL
# notes: also called combination 1
# B9: anti-cTnT Fab mutant 4 (Y34F, F60W, Y104F) (Fab, V domains shown)
# VH: B1 VH with Y33F, F59W, Y103F
# VL: B1 VL
# notes: also called combination 4
# B10: anti-cTnT Fab mutant 13 (Y34I, F60W, V101Y + Y104F) (Fab, V domains shown)
# VH: B1 VH with Y33I, F59W, V100Y, Y103F
# VL: B1 VL
# notes: also called combination 13
# B11: anti-cTnT Fab mutant 5 (Y34F, F60W, V101Y + Y104F) (Fab, V domains shown)
# VH: B1 VH with Y33F, F59W, V100Y, Y103F
# VL: B1 VL
# notes: also called combination 5
# B12: anti-cTnT Fab mutant 11 (Y34I, F60W, V101Y) (Fab, V domains shown)
# VH: B1 VH with Y33I, F59W, V100Y
# VL: B1 VL
# notes: also called combination 11
# B13: anti-cTnT Fab mutant 21 (F60W, V101Y) (Fab, V domains shown)
# VH: B1 VH with F59W, V100Y
# VL: B1 VL
# notes: also called combination 21
# B14: anti-cTnT Fab mutant 2 (Y34F, F60W) (Fab, V domains shown)
# VH: B1 VH with Y33F, F59W
# VL: B1 VL
# notes: also called combination 2
# B15: anti-cTnT Fab mutant 8 (Y34F, V101Y + Y104F) (Fab, V domains shown)
# VH: B1 VH with Y33F, V100Y, Y103F
# VL: B1 VL
# notes: also called combination 8
# B16: anti-cTnT Fab mutant 12 (Y34I, F60W, Y104F) (Fab, V domains shown)
# VH: B1 VH with Y33I, F59W, Y103F
# VL: B1 VL
# notes: also called combination 12; combination "12"
# B17: anti-cTnT Fab mutant 17 (F60W) (Fab, V domains shown)
# VH: B1 VH with F59W
# VL: B1 VL
# notes: also called combination 17
# B18: anti-cTnT Fab mutant 9 (Y34I) (Fab, V domains shown)
# VH: B1 VH with Y33I
# VL: B1 VL
# notes: also called combination 9
# B19: anti-cTnT Fab mutant 15 (Y34I, Y104F) (Fab, V domains shown)
# VH: B1 VH with Y33I, Y103F
# VL: B1 VL
# notes: also called combination 15
# B20: anti-cTnT Fab mutant 19 (Y104F) (Fab, V domains shown)
# VH: B1 VH with Y103F
# VL: B1 VL
# notes: also called combination 19
# B21: anti-cTnT Fab mutant 16 (Y34I, V101Y + Y104F) (Fab, V domains shown)
# VH: B1 VH with Y33I, V100Y, Y103F
# VL: B1 VL
# notes: also called combination 16
# Target: T1, recombinant human cardiac troponin T (human, UniProt P45379 2-298)
# T1 construct: In the ECL assay the cTnT came from the Troponin T hs CalSet calibrator; also called cTnT; TnT
# Experiment: SPR (Biacore T200, 37 C), Fab captured, cTnT analyte
# Protocol: (§1) Detailed kinetic investigations were performed at 37° C. on a GE Healthcare T200 instrument. A Biacore CM-5 series S sensor was mounted into the instrument and was preconditioned according to the manufacturer's instructions. The system buffer was HBS-ET (10 mM HEPES (pH 7.4), 150 mM NaCl, 1 mM EDTA, 0.05% (w/v) Tween® 20). The sample buffer was the system buffer supplemented with 1 mg/ml CMD (Carboxymethyldextran, Fluka). In one embodiment an anti-human antibody capture system was established on the CMS biosensor. GAHF(ab′)2, (goat anti human F(ab′)2) (Code Nr.: 109-005-097, lot #13.12.2005, Jackson Immuno Research) was immobilized according to the manufacturer's instructions using NHS/EDC chemistry. 30 μg/ml GAHF(ab′)2 in 10 mM sodium acetate buffer (pH 5.0) were preconcentrated to the flow cells 1, 2, 3 and 4 and were immobilized with 10.000 RU GAHF(ab′)2. The sensor was subsequently saturated with 1 M ethanolamine pH 8.5.
# Chimeric anti-TnT antibody fragments were periplasmatically expressed in E. coli cells as described and were lyzed by methods known (for technical details see: Andersen, D. C. & Reilly, D. E. (2004); Production technologies for monoclonal antibodies and their fragments. Curr Opin Biotechnol 15, 456-62). The lysates were diluted 1:20 in sample buffer. Fab fragments were captured via their humanized framework regions from the expression lysates on the biosensor at a flow rate of 10 μl/min for 1 min followed by a 2 min washing step with 10-fold concentrated HBS-EP buffer at 30 μl/min. The Fab fragment capture level (CL) in response units (RU) was monitored. Recombinant human TnT (Roche, 37 kDa) was diluted in sample buffer at 90 nM and a concentration series was produced with […], 30 nM, 11 nM, 3.3 nM, 1.1 nM, 0 nM, 3.3 nM TnT concentration. The analyte concentration series were 80 μl/min for 3 min association phase and the dissociation phase was monitored for 3 min.
# The kinetic parameters ka [1/Ms], kd [1/s], t1/2 diss [min], KD [M] and the binding stoichiometry (Molar Ratio) (for details see: Schraeml, M. & Biehl, M. (2012); Kinetic screening in the antibody development process. Methods Mol Biol 901, 171-81.) of the cTnT analyte were determined for each Fab fragment mutant with the Biaevaluation Software (GE healthcare) according to the manufacturer's instructions.
Kd,MR (Molar Ratio),koff,kon,t/2-diss,Binder
580 pM,0.6,0.0014 s⁻¹,2.5e+06 M⁻¹ s⁻¹,8 min,B1
1600 pM,0.5,0.0047 s⁻¹,2.9e+06 M⁻¹ s⁻¹,2 min,B2
–,0.7,0.0011 s⁻¹,3e+06 M⁻¹ s⁻¹,10 min,B3
370 pM,0.7,0.00079 s⁻¹,2.1e+06 M⁻¹ s⁻¹,15 min,B4
1100 pM,0.6,0.0034 s⁻¹,3.1e+06 M⁻¹ s⁻¹,3 min,B5
450 pM,0.7,0.0011 s⁻¹,2.4e+06 M⁻¹ s⁻¹,11 min,B6
1200 pM,0.6,0.0034 s⁻¹,2.8e+06 M⁻¹ s⁻¹,3 min,B7
620 pM,0.7,0.0014 s⁻¹,2.3e+06 M⁻¹ s⁻¹,8 min,B8
270 pM,0.7,0.00072 s⁻¹,2.7e+06 M⁻¹ s⁻¹,16 min,B9
620 pM,0.7,0.0019 s⁻¹,3e+06 M⁻¹ s⁻¹,6 min,B10
230 pM,0.7,0.00057 s⁻¹,2.4e+06 M⁻¹ s⁻¹,20 min,B11
1000 pM,0.7,0.0022 s⁻¹,2.2e+06 M⁻¹ s⁻¹,5 min,B12
1600 pM,0.5,0.0043 s⁻¹,2.7e+06 M⁻¹ s⁻¹,–,B13
460 pM,0.7,0.001 s⁻¹,2.2e+06 M⁻¹ s⁻¹,11 min,B14
200 pM,0.7,0.00052 s⁻¹,2.7e+06 M⁻¹ s⁻¹,22 min,B15
320 pM,0.5,0.00037 s⁻¹,1.18e+06 M⁻¹ s⁻¹,31 min,B16
540 pM,0.7,0.0016 s⁻¹,2.9e+06 M⁻¹ s⁻¹,7 min,B17
1200 pM,0.7,0.0023 s⁻¹,2e+06 M⁻¹ s⁻¹,5 min,B18
1100 pM,0.7,0.0023 s⁻¹,2.2e+06 M⁻¹ s⁻¹,5 min,B19
460 pM,0.8,0.0014 s⁻¹,2.9e+06 M⁻¹ s⁻¹,8 min,B20
3400 pM,0.6,0.0059 s⁻¹,1.7e+06 M⁻¹ s⁻¹,2 min,B21

# Target: T1, recombinant human cardiac troponin T
# Experiment: SPR (Biacore T200, 37 C), Fab captured, cTnT analyte; Fab fragment
# Protocol: as §1, with “The sensor was subsequently saturated with 1 M ethanolamine pH 8.5.” left out
# Chimeric anti-TnT antibody fragments were periplasmatically expressed in E. coli cells as described and were lyzed by methods known (for technical details see: Andersen, D. C. & Reilly, D. E. (2004); Production technologies for monoclonal antibodies and their fragments. Curr Opin Biotechnol 15, 456-62). […] The Fab fragment capture level (CL) in response units (RU) was monitored. […] The analyte concentration series were 80 μl/min for 3 min association phase and the dissociation phase was monitored for 3 min. […]
row,Kd,Binder
1,380 pM,B3
